Results reported in PMC4457860, “In Vitro Interaction of the Housekeeping SecA1 with the Accessory SecA2 Protein of Mycobacterium tuberculosis” (PLoS ONE, 2015).
Numbering of substitutions follows the chain as printed. Names and notes keep the numbering of the source.

Key:
[1] = biological target: Mycobacterium tuberculosis SecA1(S945C) labeled with Cy5 (Mycobacterium tuberculosis strain H37Rv) (UniProt P9WGP5); test: MST; as the low salt experiment, but at moderate salt concentration (150 mM KCl); dimer to monomers
[2] = biological target: Mycobacterium tuberculosis SecA1(S945C) labeled with Cy5 (Mycobacterium tuberculosis strain H37Rv) (UniProt P9WGP5); test: MST; Monolith NT.115; unlabeled protein (1 nM to 5 μM) titrated into 25 nM Cy5-labeled protein, mixed in 300 mM KCl, then diluted into low salt buffer (25 mM HEPES-KOH pH 7.5, 30 mM KCl, 2 mM MgCl2, 50 mM arginine); Hill fit, apparent Kd; dimer to monomers
[3] = biological target: Mycobacterium tuberculosis SecA2(S802C) labeled with Cy5 (Mycobacterium tuberculosis strain H37Rv) (UniProt P9WGP3); test: as above
[4] = biological target: Mycobacterium tuberculosis SecA1(S945C) labeled with Cy5, P9WGP5; test: fluorescence cross-correlation spectroscopy (FCCS); SecA1-Cy5 and SecA2-AF488 mixed 1:1 in 300 mM KCl, exchanged on NAP5 into 25 mM HEPES-KOH pH 7.5, 30 mM KCl, 2 mM MgCl2, 50 mM arginine; 10 min at room temperature; LSM710 confocal microscope; conditions: other: fluorescence cross-correlation spectroscopy (FCCS)
[5] = biological target: T1, Mycobacterium tuberculosis SecA2(S802C) labeled with Cy5 (Mycobacterium tuberculosis strain H37Rv, UniProt P9WGP3 31-808, S802C, Cy5 (Cy5-maleimide label)); test: MST; as the low salt experiment, but at moderate salt concentration (150 mM KCl); dimer to monomers; conditions: both partners purified
T1 construct: also called SecA2-Cy5; PIP154
T1 sequence: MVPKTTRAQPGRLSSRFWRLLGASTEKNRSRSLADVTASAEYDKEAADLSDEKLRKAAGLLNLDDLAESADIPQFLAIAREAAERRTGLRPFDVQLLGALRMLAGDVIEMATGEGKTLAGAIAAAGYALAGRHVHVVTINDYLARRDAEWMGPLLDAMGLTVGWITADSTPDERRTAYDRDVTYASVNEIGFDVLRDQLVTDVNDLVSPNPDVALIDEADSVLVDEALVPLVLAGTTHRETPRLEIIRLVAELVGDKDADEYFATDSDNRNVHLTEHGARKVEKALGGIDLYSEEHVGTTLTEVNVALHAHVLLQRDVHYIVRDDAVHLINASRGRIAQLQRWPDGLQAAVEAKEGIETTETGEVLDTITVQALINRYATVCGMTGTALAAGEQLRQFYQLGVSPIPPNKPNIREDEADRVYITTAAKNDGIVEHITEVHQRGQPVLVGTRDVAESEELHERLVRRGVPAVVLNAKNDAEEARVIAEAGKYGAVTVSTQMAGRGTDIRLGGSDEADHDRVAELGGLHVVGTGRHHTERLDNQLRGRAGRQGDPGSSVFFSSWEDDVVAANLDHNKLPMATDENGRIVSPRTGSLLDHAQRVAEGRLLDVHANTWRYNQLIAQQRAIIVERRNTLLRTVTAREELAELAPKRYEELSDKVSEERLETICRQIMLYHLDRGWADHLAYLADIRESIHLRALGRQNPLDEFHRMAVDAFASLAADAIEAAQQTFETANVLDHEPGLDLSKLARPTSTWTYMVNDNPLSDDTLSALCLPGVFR

[6] = biological target: T1, Mycobacterium tuberculosis SecA2(S802C) …; test: MST; Monolith NT.115; unlabeled protein (1 nM to 5 μM) titrated into 25 nM Cy5-labeled protein, mixed in 300 mM KCl, then diluted into low salt buffer (25 mM HEPES-KOH pH 7.5, 30 mM KCl, 2 mM MgCl2, 50 mM arginine); Hill fit, apparent Kd; dimer to monomers; conditions: both partners purified
[7] = biological target: Mycobacterium tuberculosis SecA1(S945C) labeled with Cy5 (Mycobacterium tuberculosis strain H37Rv) (UniProt P9WGP5); test: as above; remark: listed apart in the source

## Mycobacterium tuberculosis SecA1 (unlabeled) (from UniProt P9WGP5 1-949) (natural protein)
[1]
  Kd: 298 nM
[2]
  Kd: 65 nM
[3]
  Kd: 438 nM

B1: Mycobacterium tuberculosis SecA2(S802C) labeled with AlexaFluor 488 (protein)
chain: T1 sequence
[4]
  percent of all proteins co-migrating as heterodimers: 12% of all proteins co-migrated as heterodimers

B2: Mycobacterium tuberculosis SecA2 (unlabeled) (natural protein)
chain: T1 sequence with C773S
notes: No tag; molecular mass 85 kDa on SDS-PAGE; also called PIP152
[5]
  Kd: 618 ± 36.5 nM
[6]
  Kd: 161 ± 6.2 nM
[7]
  Kd: 378 nM
